# Values of other authors as cited in publication PMC6704176.
# Molecular target: SRSRY (uPAR-derived peptide) (Homo sapiens)
substance,measurement,value
FPR1 (from UniProt P21462),Kd,30 nM
